Source: US20250163167A1 (SYNTHEKINE, published 2025)

T1: human IL-10 receptor (hIL-10R alpha and beta chains) on HEK-Blue IL-10 reporter cells (human, UniProt Q13651 22-578; Q08334 20-325)
T1 sequence 1: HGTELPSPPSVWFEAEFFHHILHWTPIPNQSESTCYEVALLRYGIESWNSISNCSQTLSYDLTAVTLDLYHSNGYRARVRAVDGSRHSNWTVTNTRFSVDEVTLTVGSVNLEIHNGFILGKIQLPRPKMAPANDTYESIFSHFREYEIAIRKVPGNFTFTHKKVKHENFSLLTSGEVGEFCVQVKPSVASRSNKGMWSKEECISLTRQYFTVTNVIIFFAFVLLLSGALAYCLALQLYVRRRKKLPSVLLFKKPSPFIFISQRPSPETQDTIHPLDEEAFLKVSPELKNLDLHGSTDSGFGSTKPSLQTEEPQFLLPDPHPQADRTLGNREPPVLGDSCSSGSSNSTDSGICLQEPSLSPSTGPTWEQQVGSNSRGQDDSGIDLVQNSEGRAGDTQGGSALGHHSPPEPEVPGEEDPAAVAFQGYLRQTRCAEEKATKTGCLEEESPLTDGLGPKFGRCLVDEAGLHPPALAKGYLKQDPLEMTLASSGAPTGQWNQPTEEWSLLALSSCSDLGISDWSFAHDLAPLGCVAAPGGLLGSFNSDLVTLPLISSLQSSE
T1 sequence 2: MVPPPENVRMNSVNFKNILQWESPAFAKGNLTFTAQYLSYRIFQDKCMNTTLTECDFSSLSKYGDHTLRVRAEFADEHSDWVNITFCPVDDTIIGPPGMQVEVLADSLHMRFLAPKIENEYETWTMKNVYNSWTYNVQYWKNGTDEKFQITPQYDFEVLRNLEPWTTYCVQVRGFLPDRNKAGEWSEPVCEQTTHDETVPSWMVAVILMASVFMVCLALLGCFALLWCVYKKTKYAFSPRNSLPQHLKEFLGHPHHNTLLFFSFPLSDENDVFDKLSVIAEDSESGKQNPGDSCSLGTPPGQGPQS

B1: IL10R binding molecule of SEQ ID NO: 260 (bispecific antibody)
chain: QVQLQESGGGSVQAGGSLRLSCAASRYLYSIDYMAWFRQSPGKEREPVAVIYTASGATFYPDSVKGRFTISQDNAKMTVYLQMNSLKSEDTAMYYCAAVRKTDSYLFDAQSFTYWGQGTQVTVSSGGGSQVQLQESGGGSVEAGGSLRLSCAASGYTHSSYCMGWFRQAPGKEREGVAAIDVDGSTTYADSVKGRFTISKDNAKNTLYLQMNSLKPEDTGMYYCAAEFADCSSNYFLPPGAVRYWGQGTQVTVSSASHHHHHH
B2: IL10R binding molecule of SEQ ID NO: 313 (bispecific antibody)
chain: QVQLQESGGGSVQAGGSLRLSCAASGYTYSSYCMGWFRQAPGKEREGVAHIDSDGSTSYADSVKGRFTISKDNAKNTLYLQMNSLKPEDTAMYYCAADPIPGPGYCDGGPNKYWGQGTQVTVSSGGGSQVQLQESGGGSVQAGGSLRLSCAASRFTYSSYCMGWFRQAPGKEREGVASIDSDGSTSYTDSVKGRFTISKDNAKNTLYLQMNSLKPEDTAMYYCALDLMSTVVPGFCGFLLSAGMDYWGKGTQVTVSSASHHHHHH
B3: IL10R binding molecule of SEQ ID NO: 314 (bispecific antibody)
chain: QVQLQESGGGSVQAGGSLRLSCAASGYTYSSYCMGWFRQAPGKEREGVAHIDSDGSTSYADSVKGRFTISKDNAKNTLYLQMNSLKPEDTAMYYCAADPIPGPGYCDGGPNKYWGQGTQVTVSSGGGSQVQLQESGGGSVQAGGSLRLSCAASGYTYSMYCMGWFRQAPGKEREGVAQINSDGSTSYADSVKGRFTISKDNAKNTLYLQMNSLKPEDTAMYYCAADSRVYGGSWYERLCGPYTYEYNYWGQGTQVTVSSASHHHHHH
B4: IL10R binding molecule of SEQ ID NO: 259 (bispecific antibody)
chain: QVQLQESGGGSVQAGGSLRLSCAASRYLYSIDYMAWFRQSPGKEREPVAVIYTASGATFYPDSVKGRFTISQDNAKMTVYLQMNSLKSEDTAMYYCAAVRKTDSYLFDAQSFTYWGQGTQVTVSSGGGSQVQLQESGGGSVQAGGSLRLSCTVSRYTASVNYMGWFRQAPGKEREGVATIFTGAGTTYYANSVKGRFTISRDNAKNTAYLQMNSLKPEDTAIYYCAVDFRGGLLYRPAYEYTYRGQGTQVTVSSASHHHHHH
B5: IL10R binding molecule of SEQ ID NO: 306 (bispecific antibody)
chain: QVQLQESGGGSVQAGGSLRLSCAASGYTYSSGCMGWFRQAPGKEREAVAAINSDGSTSYADSVKGRFTISKDNAKNTLYLQMNSLKPEDTAMYYCAAEPYCSGGYPRWSVAEFGYWGQGTQVTVSSGGGSQVQLQESGGGSVQAGGSLRLSCAASRFTYSSYCMGWFRQAPGKEREGVASIDSDGSTSYTDSVKGRFTISKDNAKNTLYLQMNSLKPEDTAMYYCALDLMSTVVPGFCGFLLSAGMDYWGKGTQVTVSSASHHHHHH
B6: IL10R binding molecule of SEQ ID NO: 305 (bispecific antibody)
chain: QVQLQESGGGSVQAGGSLRLSCAASGYTYSSGCMGWFRQAPGKEREAVAAINSDGSTSYADSVKGRFTISKDNAKNTLYLQMNSLKPEDTAMYYCAAEPYCSGGYPRWSVAEFGYWGQGTQVTVSSGGGSQVQLQESGGGSVQAGGSLRLSCAASRYLYSIDYMAWFRQSPGKEREPVAVIYTASGATFYPDSVKGRFTISQDNAKMTVYLQMNSLKSEDTAMYYCAAVRKTDSYLFDAQSFTYWGQGTQVTVSSASHHHHHH
B7: wild-type human IL-10 (Recombinant Animal-Free Human IL-10, Shenandoah Biotechnology) (ligand)
chain: SPGQGTQSENSCTHFPGNLPNMLRDLRDAFSRVKTFFQMKDQLDNLLLKESLLEDFKGYLGCQALSEMIQFYLEEVMPQAENQDPDIKAHVNSLGENLKTLRLRLRRCHRFLPCENKSKAVEQVKNAFNKLQEKGIYKAMSEFDIFINYIEAYMTMKIRN
B8: IL10R binding molecule of SEQ ID NO: 304 (bispecific antibody)
chain: QVQLQESGGGSVQAGGSLRLSCAASGYSNCSYDMTWYRQAPGKEREFVSAIHSDGSTRYADSVKGRFFISQDNAKNTVYLQMNSLKPEDTAMYYCKTDPLHCRAHGGSWYSVRANYWGQGTQVTVSSGGGSQVQLQESGGGSVQTGGSLRLSCAASGYTYLRGCMGWFRQAPGKEREGVAVMDVVGDRRSYIDSVKGRFTISRDNAANSVYLQMDNLKPEDTAMYYCTAGPNCVGWRSGLDYWGQGTQVTVSSASHHHHHH
B9: IL10R binding molecule of SEQ ID NO: 310 (bispecific antibody)
chain: QVQLQESGGGSVQAGGSLRLSCAASGYTYSSGCMGWFRQAPGKEREAVAAINSDGSTSYADSVKGRFTISKDNAKNTLYLQMNSLKPEDTAMYYCAAEPYCSGGYPRWSVAEFGYWGQGTQVTVSSGGGSQVQLQESGGGSVQAGGSLRLSCGASGYTYSSYCMGWFRQVPGKEREGVAVIDSDGSTSYADSVKGRFTISKDNGKNTLYLQMNSLKPEDTAMYYCAADLGHYRPPCGVLYLGMDYWGKGTQVTVSSASHHHHHH
B10: IL10R binding molecule of SEQ ID NO: 311 (bispecific antibody)
chain: QVQLQESGGGSVQAGGSLRLSCAASGYTYSSGCMGWFRQAPGKEREAVAAINSDGSTSYADSVKGRFTISKDNAKNTLYLQMNSLKPEDTAMYYCAAEPYCSGGYPRWSVAEFGYWGQGTQVTVSSGGGSQVQLQESGGGSVQAGGSLRLSCAASGYSNCSYDMTWYRQAPGKEREFVSAIHSDGSTRYADSVKGRFFISQDNAKNTVYLQMNSLKPEDTAMYYCKTDPLHCRAHGGSWYSVRANYWGQGTQVTVSSASHHHHHH
B11: IL10R binding molecule of SEQ ID NO: 312 (bispecific antibody)
chain: QVQLQESGGGSVQAGGSLRLSCAASGYTYSSYCMGWFRQAPGKEREGVAHIDSDGSTSYADSVKGRFTISKDNAKNTLYLQMNSLKPEDTAMYYCAADPIPGPGYCDGGPNKYWGQGTQVTVSSGGGSQVQLQESGGGSVQAGGSLRLSCAASRYLYSIDYMAWFRQSPGKEREPVAVIYTASGATFYPDSVKGRFTISQDNAKMTVYLQMNSLKSEDTAMYYCAAVRKTDSYLFDAQSFTYWGQGTQVTVSSASHHHHHH
B12: IL10R binding molecule of SEQ ID NO: 309 (bispecific antibody)
chain: QVQLQESGGGSVQAGGSLRLSCAASGYTYSSGCMGWFRQAPGKEREAVAAINSDGSTSYADSVKGRFTISKDNAKNTLYLQMNSLKPEDTAMYYCAAEPYCSGGYPRWSVAEFGYWGQGTQVTVSSGGGSQVQLQESGGGSVQAGGSLRLSCTVSGYTYSSNCMGWFRQAPGKEREGVATIYTGGGNTYYADSVKGRFTISQDNAKNTVYLQMNNLKPEDTAMYYCAAEPLSRVYGGSCPTPTFDYWGQGTQVTVSSASHHHHHH
B13: IL10R binding molecule of SEQ ID NO: 308 (bispecific antibody)
chain: QVQLQESGGGSVQAGGSLRLSCAASGYTYSSGCMGWFRQAPGKEREAVAAINSDGSTSYADSVKGRFTISKDNAKNTLYLQMNSLKPEDTAMYYCAAEPYCSGGYPRWSVAEFGYWGQGTQVTVSSGGGSQVQLQESGGGSVQAGGSLRLSCAVSGYAYSTYCMGWFRQAPGKEREGVAAIDSGGSTSYADSVKGRFTISKDNAKNTLYLRMNSLKPEDTAMYYCAAVPPPPDGGSCLFLGPEIKVSKADFRYWGQGTQVTVSSASHHHHHH
B14: IL10R binding molecule of SEQ ID NO: 307 (bispecific antibody)
chain: QVQLQESGGGSVQAGGSLRLSCAASGYTYSSGCMGWFRQAPGKEREAVAAINSDGSTSYADSVKGRFTISKDNAKNTLYLQMNSLKPEDTAMYYCAAEPYCSGGYPRWSVAEFGYWGQGTQVTVSSGGGSQVQLQESGGGSVQAGGSLRLSCAASGYTYSMYCMGWFRQAPGKEREGVAQINSDGSTSYADSVKGRFTISKDNAKNTLYLQMNSLKPEDTAMYYCAADSRVYGGSWYERLCGPYTYEYNYWGQGTQVTVSSASHHHHHH
B15: IL10R binding molecule of SEQ ID NO: 315 (bispecific antibody)
chain: QVQLQESGGGSVQAGGSLRLSCAASGYTYSSYCMGWFRQAPGKEREGVAHIDSDGSTSYADSVKGRFTISKDNAKNTLYLQMNSLKPEDTAMYYCAADPIPGPGYCDGGPNKYWGQGTQVTVSSGGGSQVQLQESGGGSVQAGGSLRLSCAVSGYAYSTYCMGWFRQAPGKEREGVAAIDSGGSTSYADSVKGRFTISKDNAKNTLYLRMNSLKPEDTAMYYCAAVPPPPDGGSCLFLGPEIKVSKADFRYWGQGTQVTVSSASHHHHHH

These binders were tested against T1, human IL-10 receptor (hIL-10R alpha and …) (assay: cell-based or functional assay).

Binder	Abs 630 (25 nM) [Abs 630]	Abs 630 (100 nM) [Abs 630]
B1	0.49	0.39
B2	0.47	0.39
B3	0.49	0.42
B4	1.85	1.13
B5	0.69	0.49
B6	0.59	0.35
B7	2.08	2.04
B8	1.96	2.06
B9	0.51	0.44
B10	0.48	0.4
B11	0.48	0.39
B12	0.45	0.37
B13	0.48	0.39
B14	0.44	0.34
B15	0.51	0.41
